Measurements: US20240285753A1 (DUKE UNIVERSITY, published 2024)

Target: MERS spike (2P) (MERS-CoV, UniProt K9N5Q8 18-1291)
Test: ELISA, coated spike, mAb titrated

B1: DH1509 (antibody, V domains shown)
VH: QVQLVESGGGVVQPGRSLRLSCAASGFTLSSHGIHWVRQAPGKGLEWVAVTSFDGRNKKFGDSVKGRFTISRDNSKNTVYLQMNSLRTEDTAVYYCAKDWGDDYSRWYFDLWGRGTLVTVSS
VL: DIQMTQSPSSLSASVGDRVTITCQASHDITKYLNWYQQKPGRAPKLLIYDASNLKTGVPSRFSGSGSGTDFTFTITSLQPEDLATYYCQQSDVLPITFGQGTRLEIK
With B1 the “EC50 (read off the curve)” value was roughly 0.2 µg/mL.
